The values below come from a protein production outcome set (Wang et al. 2014).

The nature of this data set: label from the status in PepcDB records.

In the case of “MILAIDLGTSGAKAAIIDSAGAVHEQTFVPYSTTKLPNGGVEQDPMQWVSAARQAVTRLPRSYSVVSFTGQMQDLICLDRAGRPLGQALLYNDARAAAEAARLNTVVPEWKDITGNRQTATSTAAMWLRLMEQSD”, the protein production result is on record as “failed”.
Consider “MILEFKSEKKMINFSKSFFYPLPIGKIFVLSGDMGSGKTSFLKGLALNLGISYFTSPTYNIVNVYDFINFKFYHIDLYRVSSLEEFELVGGLEILMDLDSIIAIEWPQIALSIVPKDRLFSLTFKIVGSGRVVELNGLEHHHHHH”, for which the protein production result was “not failed”.
Regarding “MILGIDIGGANTKITELHENGEFKVHHLYFPMWKNNDKLAEVLKTYSKDISHVALVTTAELADSYETKKEGVDNILNAAESAFGSNISVFDSDGNFISLEGAKTNYMKVSASNWCGTAKWVSKNIEENCILVDMGSTTTDIIPIVDGKVVAEKTDLERLMNHELLYVGTLRTPISHLGNTILFKGVNTNVSSEYFAITADISVVLEKVTTEEYTCDTPDGKGTDKRSSLVRISKVLCSDLDQISEIDAENIAKTYYELWKELILENVKKVAEKYGSKKVVITGIGENILKDALGDFEVISVAERYGKDVSLATPSFAVAELLKNELLEHHHHHH”, the protein production entry is “not failed”.
The same measure for “MILINKRAEKQDYQTILAIWEKSVIVTHDFLTAEDRQFYKEQIPLFLDNVELFLWFAGEEVIGFSGTSERELDMLFLDPVATGNGYGSQILGWLIENKRINLVDVNEQNENATRFYLKHGFVVSSRSDLDGFGKPYPILQLQLK”: “not failed”.
The same measure for “MILKRAYDVTPQKISTDKVRGVRKRVLIGLKDAPNFVMRLFTVEPGGLIDRHSHPWEHEIFVLKGKLTVLKEQGEETVEEGFYIFVEPNEIHGFRNDTDSEVEFLCLIPKEGGE”: “not failed”; for “MILLKSLYKGFFAAMKEENFEARCYNREKGGCVLIKTMQYKKTMATVVALIVALLLFGLIYDLLGVQKNELAAQKSAQPKVKTARVVANGDILIHDILYMSARKADDTYDFTPYFEYVKDWISGADLAIGDYEGTISPDYPLAGYPLFNAPEEIAGALKNTGYDVVDLAHNHILDSQLDGALNTKKVFHQLGIDSIGIYDKDRSKESFLIKNVNGIKIAILGYSYGYNGMEATLSQEDYEKHMSDLDEAKIKKELQLAEKKADVTIVMPQMGTEYALEPTAEQKELYHKMIDWGADVVLGGHPHVIEPSETVIKGRQKKFIIYSMGNFISNQRLETVDDIWTERGLLMDLTFEKKDNKTKIKTVEAHPTMVLAKGKGIVGKEGFELYNYRTMVLEDFIKGGKYHDKIDEETKAKVALAYQEINDLVNLKW”: “failed”.
The same measure for “MILLTSVLAIVSVILLTLPLLEAYSLNSSLVGGAVSPGATYSYKMNAVLINFYHNNSISHLLGNFSFTTGYINITMENGYATFSVKLYGQPAGENVTLADSFVLKASDHSSLFESFFPSGLVEAGEFVNVFNNTGQYYGAASAFSSVNVGKGTLFSTSQMVKLINVPEQPSGYFENVSRELNANSVYYIESPSHSFLSHIVFTGNSTVISALLGSSSVSNVTLLYISLEKTDVAVETLNVMHYVMHYIAVVVILWILGVVYMISLYRRVSLKQRR”: “failed”.
Take “MILNILLNLAIFIIPSLAVWNQIILYIFGKSGDIANLILLNNESNLPKLSIIVPTKGERIEVIQGLIDNIHEAIWDRNKLEIIIVSDDEQEYFDKLLSTLIIPPDLDVRIFRREKKLGYKSGALAFGLQKSTGDLILTLDVDARIEKDSLIKAYNHMVNLGCDAITMEWHGYSNISTSLAKALMVSTVLTSKSILRGRDKLGLKVLPIGCGTIYKRSALEAVNGWDYKMIQDDYELGARLINKGFKVCASSSPVYVEVPDNLIAFYVQQTRWAMGTMEVLYWRFKYIISSDIKLWQKLEIIAYLSQYIPIILTFISAIIFAIAGFVGIRLSMNLPMFIIWAITLSIYASIFVNSAKKSGIDTVTAIKALGRLSAYTVGISPFLLIGTINAFKKTRTYIVTPKGKKAKSNIGYPILAFGVFFILSAFLYMFRGDFLTFIWLAYYSIAFLYTFIAYIKGL”: the protein production entry is on record as “failed”.
For the sequence “MILSAEQSFTLRHPHGQAAALAFVREPAAALAGVRFLRGLDSDGEQVWGELLVTVPLLGEVDLPFRSEIVRTPQGAELRPLTLTGERAWVAVSGQATAAEGGEMAFAFQFQAHLATPEAEGWGGAAFEKMVQAAAGRTLERVAKALPEGLAAGLPPA”, the protein production entry is recorded as “not failed”.
On to “MILSLNLLHKISPKLKKIPLNELCAALMDLGCEVETINSIKPSTNLVFAKVLEKTRHPNANHLNLVKVKANQKVYEIVCGANNFSVHNWVVLAKLNAELANGLKITPRELRGYVSNGMLCAYSEINPQATSFLTSTDLDGILVLDDNYDHYKTPNQIFNLDDVILDLSIPSNRNDLNGYFWIAKELCAYFDFEYVVDATINHRPHKEIIDVRILSDDVNSYGIIEVKNIQNYILKWNTKSILINNQIKVLNNFADNMNFLTLLTANPLHAFDARKISGQIVVKNAEEDAILLGLDQKEYLIKKGDLIIVDDQKILALAGIIGSNDSKIDATSTTAYIECANFNPMLIANTARRLKINTAAAMRFSKPLTNYVTKVTLKKLLANFKSDAKLIYYFKHSVHNVIKNKINQVSDFVGAEIDLDTAQTFLKRLGYKINKSNLITPSHRYDVLNEFDVYEDIMKKISIQEIKPQPISFDILNFENNLAYDFEKKVSDFLVDQGLFECKTYNLKNQTQAHEFNFFNFKQAYEINNPTSNMRSHLKLNNLNSLLEVLEYNQNQKNELENIFEISKINPVDSSQQTVLSIILCKPLINSKINDSLIVNNFVTTKALLHALLTKLNIDYAYDKNHVVNELYDNNQLALINANKQVFGFIGQLKNQVKKTYGLSNDIFIINLNLTSYLNQKQVITKVIKPSMYHDVIRDISVKLASDVDLNNIIANIKKIKNIRKVEISDLYIKDDGIIYTFKYYINDHLSNLSSEQIIIIEQEVNNYLKQF”, for which the protein production entry is “failed”.
The same measure for “MILSNYFKFLSHQLKGWPQQNYYLFYFSLGCQVMTLVSAPITALSILTFIGTTLGVLCVLAINAAKSVNGLLGVISAACFIVVGFSAKNYLSIGEQLAYVVTLDIPVLLSANWNVNMVSKIRKFTGKTWIVAIVATLVVYAISGYLIGALTDDPRPWVDAISFAICLTAGVICFLRYNNQYFWWIASGLAQMVLWFISFRQGSATLAMFINSSVYLMNDVLAFTVSPWYNKHERARLMAEEQAASDAASADASDNQAFGLNH”: “failed”.
The same measure for “MILTVGNTKGGVGKTTLAVNLAVERFLAGKDVLLIDADNQRTSSAFSALRESLHGQTGYTCIELSGSAVHQQGRNLAPKYDEVIIDVGGRDTSALRGALAISDIALVPFAVGTFDIWAAEDIGRLIEEARGFNPTLRAFSVLNMADPAGGDNADAAGLLTETSALVYLRASLVRRKAMRNAAAAGLGVLEMTGSSRDSKACGEVGYLAELLYNKLNLEHHHHHH”: “failed”; for “MILVSLVVVLFLVLLNGVFSMSELAVVSARKARLQGFAERGDRGAKLALEMSEHPTRFLSAVQVGITLIGIFAGAYGQATIAAALDAWLEASVPALAKYSEAIATTLVVIGLTYVSVILGELVPKRLALIFPDAIARRMAPFLAVVATVLRPFVTLLTVSTAAVLRLMGVRDERNTSVTSEEVEAVLAEGADAGLIEPEERSMIQEVLRLGDRPVRVAMTPRRDLFWVSLADDTETVLKEIRASAHSRIVVATEGDLDGDVGVLLKKDLLDACLSGEPLDLKAHVQQPLAIPETMSLLKALQLFKSTSLHMALVVDEFGSLQGAITPLDLLEMIAGDFPEDHDDDEKRIIRREDGGWLIDARLDIQELNDHLGENFEADGGYHTVAGLILDRLGRLPTEGEHVEIGGFDLEIVDMDGSRIDKVILKPSKRRKEGQEG”: “failed”; for “MILYVFLFFVGLLLLYLGAEGLIQGASSIALQYGIRPVILGLTVVALGTSMPEYLVNVFALISGESPLAIGNIIGSNISNVALILGACAVVLPLAVTPEVLRREYPVMLGVMVLFYLCALDGVIGARDGVLMVVLLSGLAAYVFYDAHRTTRGTVLESMEGELDAADPDLSTLAKAVYVIGGMGGLTLGAHLMVDNALAISDVLNIDHVVIGLTVVAIGTSLPELAASMVGTLKQEVDMTVGNVIGSNLLNVLFVVGTLAIAEPITVDPETIRLHFPVMLGFCALLVPLTWWDQKITRVEGAFMVIAFLGFMVFLYV”: “failed”.
The same measure for “MIMEHEYRLEVRGYELDSFGHVNNAVYLNYLEAARWDLCSKLNLTDYNESNELFIVVIETNIKYIRELKLFDKVLIKTELTYEDDYLIFKHNIYNEVTKRKASVAKSKMVLVSKQRIIYEIPQFIKDKLDICAYGLEHHHHHH”: “failed”.
